This is an account of results in the supplement of paper PMC9170038.

For the data set, the system named is MS2 coat protein. In words: apparent KD of MS2 coat protein; higher = weaker reporter binding. The conditions noted are these: Eterna round: R107. Summed up:
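Designed RNA switches were made by on-chip transcription from Illumina sequencing clusters and then titrated with SNAP-549-labelled MS2 coat protein. Twofold steps ran from 0.7 or 1.5 nM to 3 µM, each lasting 0.8–1.5 h early and 10–20 min late, in 100 mM Tris-HCl pH 7.5, 80 mM KCl, 4 mM MgCl2, without or with constant ligand. Apparent KD is the per-design median of normalised cluster binding-curve fits.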

Setting [1] is: input ligand: theophylline 20 uM.
[2] abbreviates: input ligand: theophylline 2 mM.
[3] abbreviates: input ligand: tryptophan 2.4 mM.

For “CGGUCGGUCGGCCGGUGAUUAUGGGAUGAAGGAGCGUGGGAAGCUACAGGUAGGUCGCAUCCGAAACACGAGGAUCACCCGUGUU [SSArg A #25Alt-Ms2 Mod]”, the “apparent KD of MS2 coat protein” value is, setting by setting: (input ligand: arginine 13.2 mM) 26.5 nM; (input ligand: none) 24.3 nM; under setting [1], 38.3 nM; under setting [2], 37.4 nM; under setting [3], 28.4 nM.
Consider “CGGUCGGUCGGUCGGUGAUUAUGGGAUGAAGGAGCGUGGGAAGCUACAGGUAGGUCGCAUCCGAAACAUGAGGAUCACCCAUGUU [#21 Same State - Arginine A]”, for which the “apparent KD of MS2 coat protein” value came out at 24.6 nM (input ligand: arginine 13.2 mM); 21 nM (input ligand: none); 26.8 nM under setting [1]; 21.3 nM under setting [2]; 18.5 nM under setting [3].
As to “CGGUUUGUGAUGGAUACCAGCAGAGUGAAUGUUUAUCCUGACAUGAGGAUCACCCAUGUGUGCCCUUGGCAGCUGUUGUGGGCUG [8.Z]”, the “apparent KD of MS2 coat protein” value runs as follows: (input ligand: arginine 13.2 mM) 54.4 nM; under setting [1], 100 nM; under setting [3], 63.7 nM.
“CGUAUUACGAAAGUAGUACGUAGUGUUCGACGAGGACCGGUACGGCCGCCACUCGGACAUGAGGAUCACCCAUGUAGCGAAAGCU [Tryptophan A 24]”: the “apparent KD of MS2 coat protein” value reads like this: (input ligand: arginine 13.2 mM) 46.1 nM; (input ligand: none) 255 nM; under setting [1], 301 nM; under setting [2], 247 nM; under setting [3], 28.3 nM.
Turning to “CGUGGUUGAGAUGGGCCUCUGAUAAGUCUGCGAGGACCGGUACGGCCGCCACUCGAGGACAUGAGGAUCACCCAUGUACUUCGCG [Vequar]”, the “apparent KD of MS2 coat protein” value by setting is: (input ligand: arginine 13.2 mM) 41.1 nM; (input ligand: none) 30.8 nM; under setting [1], 139 nM; under setting [2], 50.5 nM; under setting [3], 19.2 nM.
With “CUACAUGUAGUUAAACCGGUCAACAAUAAUCGAGGACCGGUACGGCCGCCACUCGAUGUGUUAUACACAUGAGGAUCACCCAUGU [Tryptophan A 15]”, the “apparent KD of MS2 coat protein” value runs as follows: (input ligand: arginine 13.2 mM) 23.3 nM; under setting [1], 27.2 nM; under setting [2], 27.8 nM.
The corresponding values for “CUACAUUUGUAGAAACCGGUCAACAAUAAUCGAGGACCGGUACGGCCGCCACUCGAUGUAAAAUAAACAUGAGGAUCACCCAUGU [Tryptophan A 12]” are 13.5 nM, 20.6 nM and 20 nM.
The corresponding values for “CUAUAAGUACCGGUCCUCAGAUCCUCAUGACGAGGACCGGUACGGCCGCCACUCGAAACAUGAGGAUCACCCAUGUAAUAAUAAU [Brourdmod06]” are 15 nM, 38.5 nM and 24.5 nM.
For “CUAUAAGUACCGGUCCUCAGAUCCUCAUGACGAGGACCGGUACGGCCGCCACUCGAAACAUGAGGAUCACCCAUGUAAUAAUAUU [Brourdmod10]” the same measures were 19 nM, 31.5 nM and 24.2 nM.
With “CUAUGCAGGUCGGCCGCCACUACACACAUGAGGAUCACCCAUGUAGUUACUGGGUGAAGUGGCAGUAGGACCGGGACCUGCACAU [Brourdmod15]”, the “apparent KD of MS2 coat protein” value was determined as 190 nM (input ligand: arginine 13.2 mM); 480 nM (input ligand: none); 578 nM under setting [1]; 659 nM under setting [2]; 229 nM under setting [3].
For “CUAUGGAUAAGAAGGAGCGUCGAAAAUGGGUAAACAUGAGGAUCACCCAUGUAAAGGGAACGACAGGUAGGUCGCUUAUUUAUAG [AstromonsSSArgB#7]” the same measures were 107 nM, 179 nM, 190 nM, 213 nM and 192 nM.
For “CUCAUCCACGCGGCCGCCACUAUAUUGUGGUGCGUAUGUGUCGUAAUACAUGAGGAUCACCCAUGUAGGACCGGGCGUGGAUGAG [#10 Exclusion Tryptophan B]”, the “apparent KD of MS2 coat protein” value reads like this: (input ligand: arginine 13.2 mM) 10.9 nM; under setting [1], 14.3 nM; under setting [2], 11.6 nM.
For “CUCAUCCACGCGGCCGCCACUAUAUUGUGGUGUGAAUGUGACGUAUUACAAGAGGAUCACCCUUGUAGGACCGGGCGUGGAUGAG [Tryp B Ex Mod1]”, the “apparent KD of MS2 coat protein” value stood at 28.5 nM (input ligand: arginine 13.2 mM); 20.3 nM (input ligand: none); 28.4 nM under setting [1]; 34.2 nM under setting [2]; 147 nM under setting [3].
As for “CUCCCGUGAGCGGCCGCCACUGGAGGCCUCGCGCGACAUGAGGAUCACCCAUGUUGGCCCGGCCUCAGGACCGGGUUCGCGUGAG [Same State - Tryptophan B Attempt #6 (HarryS)]”, the “apparent KD of MS2 coat protein” value is 7.47 nM (input ligand: arginine 13.2 mM); 9.18 nM (input ligand: none); 17.4 nM under setting [1]; 12.7 nM under setting [2]; 8.4 nM under setting [3].
As to “CUCCGAGGCUAUACUAUCCGCCUCUGUGAUACCAGAAUACCUAUAUUCCCUUGGCAGCAUCACAUGAGGAUCACCCAUGUGCCAU [SSTheo A #13]”, the “apparent KD of MS2 coat protein” value runs as follows: (input ligand: arginine 13.2 mM) 14.5 nM; under setting [1], 16.8 nM; under setting [3], 13.9 nM.
For “CUCGAGGCCGGUGAUACCAGACACGAAACUAUACAUGAGGAUCACCCAUGUCAAACAACGGUCCCUUGGCAGCAUGGGUGUAUCC [Enzabemage]” the same measures were 26.9 nM, 131 nM and 33.3 nM.
For “CUCGGUUGAUCCUAGCUGCCGAGAGGUGAUACCAGCAUCGAAAGAUGCCCUUGGCAGCACCAACAUGAGGAUCACCCAUGUAAUA [(MT)''-(M)'-(T')-(Theo)-(Ms2)_Design1/22_5]” the same measures were 30.2 nM, 156 nM and 30.1 nM.
As for “CUGGCAGGAUUCUCAGCUGUCAGGGCUGAUACCAGCCACGAAAGUGGCCCUUGGCAGCAGCAAACAUGAGGAUCACCCAUGUAAU [(T)''-(M)'-(T)'-(Theo)-(Ms2)_Design1]”, the “apparent KD of MS2 coat protein” value reads like this: (input ligand: arginine 13.2 mM) 279 nM; (input ligand: none) 470 nM; under setting [1], 364 nM; under setting [2], 46.3 nM; under setting [3], 208 nM.
The corresponding values for “CUUGAGACAUGAGGAUCACCCAUGUCCGAAGGAGCGUGCGAAAGCACAGGUAGGUCGCGGACGUGAGGAUCUCCCAUGUGAGCGA [#25 Exclusion - Arginine A]” are 14.3 nM, 35.9 nM, 28.2 nM, 25.7 nM and 17.8 nM.
The corresponding values for “CUUGUUUAUGGAAGGAGCGCGAUUACAUAACAUGAGGAUCACCCAUGUAAGAAAUUAUUCAUGCAGGUAGGUCGCCAUGGGUGGG [Same State Arginine B GF7]” are 111 nM, 195 nM, 105 nM, 258 nM and 120 nM.
“GAACAACAUGAGGAUCACCCAUGUCAGGAUACCAGUCGAAAGUCAGACCCUUGGCAGCCUAUCACUCAGCAAAUAGAUAGUACAA [theeternabot_sameState_MS2_Theo_A_12]”: the “apparent KD of MS2 coat protein” value runs as follows: (input ligand: arginine 13.2 mM) 14.7 nM; under setting [1], 20.4 nM; under setting [3], 16.2 nM.
In the case of “GAAUAAGAAUCGGCCGCCACUCACAUGAGGAUCACCCAUGUACAUGAGGAACAUGAAAAUCACCCGAGGACCGGGAUAUAUGUUC [Excluion - Tryptophan B #1]”, the “apparent KD of MS2 coat protein” value (input ligand: arginine 13.2 mM) was 31.1 nM, the “apparent KD of MS2 coat protein” value under setting [1] amounted to 67.4 nM and the “apparent KD of MS2 coat protein” value under setting [2] is 71.3 nM.
Turning to “GACAUGAGGAUCACCCAUGUACCGCGAGAAGGAGCGCGGAUAAACGCAGGUAGGUCGCUCGUGGGCUCACAUUCAAUUGUAAGCU [Digece]”, the “apparent KD of MS2 coat protein” value runs as follows: (input ligand: arginine 13.2 mM) 17.5 nM; (input ligand: none) 39.2 nM; under setting [1], 49.8 nM; under setting [2], 58.3 nM; under setting [3], 31.6 nM.
The corresponding values for “GACCUUAUCUGAAGGAGCGAGGUAAAUAGGGAUGAGCAUACAUGAGGAUCACCCAUGUGGCCUCAGGUAGGUCGCAGAUGAGAUU [Exclusion Arginine B GF27]” are 77.5 nM, 113 nM, 155 nM, 149 nM and 105 nM.
Take “GACCUUAUCUGAAGGAGCGAGGUAAAUAGGGUUGAGCAUACAUGAGGAUCACCCAUGUGGCCUCAGGUAGGUCGCAGAUAAGACA [Exclusion Arginine B GF29]”: the “apparent KD of MS2 coat protein” value by setting is: (input ligand: arginine 13.2 mM) 149 nM; (input ligand: none) 352 nM; under setting [1], 308 nM; under setting [2], 63.4 nM; under setting [3], 137 nM.
Turning to “GACUAUAUGAUAUGUCAGAAAUCCUCGAAACGAGGACCGGUACGGCCGCCACUCGAGUGAUAAACAUGAGGAUCACCCAUGUAAA [Tryp A Ex t2]”, the “apparent KD of MS2 coat protein” value runs as follows: (input ligand: arginine 13.2 mM) 21 nM; under setting [1], 28 nM; under setting [2], 27.7 nM.
On to “GAGCUGAUGUAGAGCGAAUAUACGAGAGAUACCAGUACAGAAAUGUACCCUUGGCAGCUCAACUUUACAUGAGGAUCACCCAUGU [Ex Theophylline A 22]”, for which the “apparent KD of MS2 coat protein” value worked out at 14.4 nM (input ligand: arginine 13.2 mM), 15.2 nM under setting [1] and 14.3 nM under setting [3].
Regarding “GAGCUGAUGUAGAGCUUAUAUAAGAGAGAUACCAGUACAGAAAUGUACCCUUGGCAGCUCAACUUUACAUGAGGAUCACCCAUGU [Ex Theophylline A 20]”, the “apparent KD of MS2 coat protein” value by setting is: (input ligand: arginine 13.2 mM) 12.3 nM; (input ligand: none) 12.6 nM; under setting [1], 16 nM; under setting [2], 23.6 nM; under setting [3], 18.1 nM.
With “GAGGCACGGUCGGCCGCCACUACAGCAGUGGUCCGCCAAGCGAGGUACAUGAGGAUCACCCAUGUUAGGACCGGGACCUGUUUUU [theeternabot_exclusion_MS2_Trp_B_27]”, the “apparent KD of MS2 coat protein” value was 20.2 nM (input ligand: arginine 13.2 mM), 24.6 nM under setting [1] and 25.5 nM under setting [2].
For the sequence “GAUGAACUAUUUGAUACCAGACUACAUGAGGAUCACCCAUGUGUGUUAAUUUUUCAGUCAGUCCCUUGGCAGCAAAUAGUUUAUC [XTheo B #2]”, the “apparent KD of MS2 coat protein” value is 42.2 nM (input ligand: arginine 13.2 mM), 70.7 nM under setting [1] and 32.1 nM under setting [3].
The corresponding values for “GAUGAUAUUGCAGAUACCAGACACAUGAGGAUCACCCAUGUCGCUGAGUUGCUGGAUCGUGUCCCUUGGCAGCUGCGAUAUCAUC [Belgium]” are 18.3 nM, 38.5 nM and 19.7 nM.
For “GAUGAUAUUGCAGAUACCAGACACAUGAGGAUCACCCAUGUCUCUGUGAUGUAGGAUUGUGUCCCUUGGCAGCUGCGAUAUCAUC [Chile]” the same measures were 88 nM, 258 nM and 175 nM.
In the case of “GCACCAGGUACGGAUACCAGCUAUAGGCACAGAGGAGGACAUGAGGAUCACCCAUGUGAUGGCCCUUGGCAGCUGUACCUGGUGC [EThB NP+V+V2 #3]”, the “apparent KD of MS2 coat protein” value (input ligand: arginine 13.2 mM) came to 8.89 nM; the “apparent KD of MS2 coat protein” value (input ligand: none) is 12.9 nM; the “apparent KD of MS2 coat protein” value under setting [1] amounted to 23.2 nM; the “apparent KD of MS2 coat protein” value under setting [2] was found to be 171 nM; the “apparent KD of MS2 coat protein” value under setting [3] worked out at 10.6 nM.
For “GCACCAGGUACGGAUACCAGCUAUAGGUACAGCGGAGGACAUGAGGAUCACCCAUGUGGUAGCCCUUGGCAGCUGUACCUGGUGC [EThB NP+V+V2 #1 +-Same Structure]” the same measures were 17.7 nM, 14.9 nM, 23.9 nM, 40.4 nM and 15.5 nM.
The corresponding values for “GCACCAGGUACGGAUACCAGCUGCCACAGUUACAUGAGGAUCACCCAUGUGAAAACGUGUAGCCCUUGGCAGCUGUACCUGGUGC [SSThB NP+V+V2 #8 Same Structure]” are 198 nM, 459 nM, 186 nM, 14.6 nM and 398 nM.
